Source: PMC6628251, “Structural and Functional Impact of Seven Missense Variants of Phenylalanine Hydroxylase” (Genes, 2019)
Several values for one entry are separate records, joined by “and”; a condition that tells them apart may be missing. Equal values may be shown once.

How the values were obtained:
[1] = biological target: the molecule itself; experiment: SEC; MBP-PAH expressed in E. coli XL1 blue without GroEL/ES; MBPTrap HP affinity, then Superdex 200 HR 10/30; 200 mM NaCl, 20 mM HEPES, pH 7.0; percent of oligomers, tetramers and dimers, mean of three column purifications
[2] = biological target: the molecule itself; experiment: as above; remark: listed apart in the source
[3] = biological target: the molecule itself; experiment: SEC; MBP-PAH co-expressed with GroEL/ES (pGroELS) in E. coli XL1 blue; MBPTrap HP affinity, then Superdex 200 HR 10/30; 200 mM NaCl, 20 mM HEPES, pH 7.0; percent of oligomers, tetramers and dimers, mean of three column purifications

Row | Protein | stoichiometry N [1] | percent of purified protein as dimers [2] | percent of purified protein as dimers [3] | percent of purified protein as tetramers [3] | percent of purified protein as tetramers [2]
1 | human wild type phenylalanine hydroxylase, fusion with maltose-binding protein (enzyme, UniProt P00439 1-452, looked up, phenylalanine hydroxylase (PAH), human, WT cDNA in the pMAL-MBP-c2 vector; also called WT PAH; PAH-MBP fusion protein) MSTAVLENPGLGRKLSDFGQETSYIEDNCNQNGAISLIFSLKEEVGALAKVLRLFEENDVNLTHIESRPSRLKKDEYEFFTHLDKRSLPALTNIIKILRHDIGATVHELSRDKKKDTVPWFPRTIQELDRFANQILSYGAELDADHPGFKDPVYRARRKQFADIAYNYRHGQPIPRVEYMEEEKKTWGTVFKTLKSLYKTHACYEYNHIFPLLEKYCGFHEDNIPQLEDVSQFLQTCTGFRLRPVAGLLSSRDFLGGLAFRVFHCTQYIRHGSKPMYTPEPDICHELLGHVPLFSDRSFAQFSQEIGLASLGAPDEYIEKLATIYWFTVEFGLCKQGDSIKAYGAGLLSSFGELQYCLSEKPKLLPLELEKTAIQNYTVTEFQPLYYVAESFNDAKEKVRNFAATIPRPFSVRYDPYTQRIEVLDNTQQLKILADSINSEIGILCSALQKIK | 4 and 2 |  |  |  | 
2 | human phenylalanine hydroxylase variant p.Ala342Pro, fusion with maltose-binding protein (enzyme, UniProt P00439 1-452, looked up, phenylalanine hydroxylase (PAH), human, missense variant from Czech PKU/HPA patients, made by site-directed mutagenesis of pMAL-PAH; Same construct as m1 with one substitution; also called c.1024G>C) MSTAVLENPGLGRKLSDFGQETSYIEDNCNQNGAISLIFSLKEEVGALAKVLRLFEENDVNLTHIESRPSRLKKDEYEFFTHLDKRSLPALTNIIKILRHDIGATVHELSRDKKKDTVPWFPRTIQELDRFANQILSYGAELDADHPGFKDPVYRARRKQFADIAYNYRHGQPIPRVEYMEEEKKTWGTVFKTLKSLYKTHACYEYNHIFPLLEKYCGFHEDNIPQLEDVSQFLQTCTGFRLRPVAGLLSSRDFLGGLAFRVFHCTQYIRHGSKPMYTPEPDICHELLGHVPLFSDRSFAQFSQEIGLASLGAPDEYIEKLATIYWFTVEFGLCKQGDSIKPYGAGLLSSFGELQYCLSEKPKLLPLELEKTAIQNYTVTEFQPLYYVAESFNDAKEKVRNFAATIPRPFSVRYDPYTQRIEVLDNTQQLKILADSINSEIGILCSALQKIK |  | 22% | 15.5% | 3.8% | 
3 | human phenylalanine hydroxylase variant p.Asp229Gly, fusion with maltose-binding protein (enzyme, UniProt P00439 1-452, looked up, phenylalanine hydroxylase (PAH), human, missense variant from Czech PKU/HPA patients, made by site-directed mutagenesis of pMAL-PAH; Same construct as m1 with one substitution; also called c.686A>G) MSTAVLENPGLGRKLSDFGQETSYIEDNCNQNGAISLIFSLKEEVGALAKVLRLFEENDVNLTHIESRPSRLKKDEYEFFTHLDKRSLPALTNIIKILRHDIGATVHELSRDKKKDTVPWFPRTIQELDRFANQILSYGAELDADHPGFKDPVYRARRKQFADIAYNYRHGQPIPRVEYMEEEKKTWGTVFKTLKSLYKTHACYEYNHIFPLLEKYCGFHEDNIPQLEGVSQFLQTCTGFRLRPVAGLLSSRDFLGGLAFRVFHCTQYIRHGSKPMYTPEPDICHELLGHVPLFSDRSFAQFSQEIGLASLGAPDEYIEKLATIYWFTVEFGLCKQGDSIKAYGAGLLSSFGELQYCLSEKPKLLPLELEKTAIQNYTVTEFQPLYYVAESFNDAKEKVRNFAATIPRPFSVRYDPYTQRIEVLDNTQQLKILADSINSEIGILCSALQKIK |  | 19.3% | 10.1% | 10.2% | 
4 | human phenylalanine hydroxylase variant p.Phe263Ser, fusion with maltose-binding protein (enzyme, UniProt P00439 1-452, looked up, phenylalanine hydroxylase (PAH), human, missense variant from Czech PKU/HPA patients, made by site-directed mutagenesis of pMAL-PAH; Same construct as m1 with one substitution; also called c.788T>C) MSTAVLENPGLGRKLSDFGQETSYIEDNCNQNGAISLIFSLKEEVGALAKVLRLFEENDVNLTHIESRPSRLKKDEYEFFTHLDKRSLPALTNIIKILRHDIGATVHELSRDKKKDTVPWFPRTIQELDRFANQILSYGAELDADHPGFKDPVYRARRKQFADIAYNYRHGQPIPRVEYMEEEKKTWGTVFKTLKSLYKTHACYEYNHIFPLLEKYCGFHEDNIPQLEDVSQFLQTCTGFRLRPVAGLLSSRDFLGGLAFRVSHCTQYIRHGSKPMYTPEPDICHELLGHVPLFSDRSFAQFSQEIGLASLGAPDEYIEKLATIYWFTVEFGLCKQGDSIKAYGAGLLSSFGELQYCLSEKPKLLPLELEKTAIQNYTVTEFQPLYYVAESFNDAKEKVRNFAATIPRPFSVRYDPYTQRIEVLDNTQQLKILADSINSEIGILCSALQKIK |  | 27.1% | 13.6% | 11% | 
5 | human phenylalanine hydroxylase variant p.Thr200Asn, fusion with maltose-binding protein (enzyme, UniProt P00439 1-452, looked up, phenylalanine hydroxylase (PAH), human, missense variant from Czech PKU/HPA patients, made by site-directed mutagenesis of pMAL-PAH; Same construct as m1 with one substitution; also called c.599C>A) MSTAVLENPGLGRKLSDFGQETSYIEDNCNQNGAISLIFSLKEEVGALAKVLRLFEENDVNLTHIESRPSRLKKDEYEFFTHLDKRSLPALTNIIKILRHDIGATVHELSRDKKKDTVPWFPRTIQELDRFANQILSYGAELDADHPGFKDPVYRARRKQFADIAYNYRHGQPIPRVEYMEEEKKTWGTVFKTLKSLYKNHACYEYNHIFPLLEKYCGFHEDNIPQLEDVSQFLQTCTGFRLRPVAGLLSSRDFLGGLAFRVFHCTQYIRHGSKPMYTPEPDICHELLGHVPLFSDRSFAQFSQEIGLASLGAPDEYIEKLATIYWFTVEFGLCKQGDSIKAYGAGLLSSFGELQYCLSEKPKLLPLELEKTAIQNYTVTEFQPLYYVAESFNDAKEKVRNFAATIPRPFSVRYDPYTQRIEVLDNTQQLKILADSINSEIGILCSALQKIK |  | 10.5% | 4.5% | 43.8% | 40.5%
6 | human phenylalanine hydroxylase variant p.Ile406Met, fusion with maltose-binding protein (enzyme, UniProt P00439 1-452, looked up, phenylalanine hydroxylase (PAH), human, missense variant from Czech PKU/HPA patients, made by site-directed mutagenesis of pMAL-PAH; Same construct as m1 with one substitution; also called c.1218A>G) MSTAVLENPGLGRKLSDFGQETSYIEDNCNQNGAISLIFSLKEEVGALAKVLRLFEENDVNLTHIESRPSRLKKDEYEFFTHLDKRSLPALTNIIKILRHDIGATVHELSRDKKKDTVPWFPRTIQELDRFANQILSYGAELDADHPGFKDPVYRARRKQFADIAYNYRHGQPIPRVEYMEEEKKTWGTVFKTLKSLYKTHACYEYNHIFPLLEKYCGFHEDNIPQLEDVSQFLQTCTGFRLRPVAGLLSSRDFLGGLAFRVFHCTQYIRHGSKPMYTPEPDICHELLGHVPLFSDRSFAQFSQEIGLASLGAPDEYIEKLATIYWFTVEFGLCKQGDSIKAYGAGLLSSFGELQYCLSEKPKLLPLELEKTAIQNYTVTEFQPLYYVAESFNDAKEKVRNFAATMPRPFSVRYDPYTQRIEVLDNTQQLKILADSINSEIGILCSALQKIK |  | 15.6% | 6.9% | 37.7% | 34.2%
7 | human phenylalanine hydroxylase variant p.Asn167Tyr, fusion with maltose-binding protein (enzyme, UniProt P00439 1-452, looked up, phenylalanine hydroxylase (PAH), human, missense variant from Czech PKU/HPA patients, made by site-directed mutagenesis of pMAL-PAH; Same construct as m1 with one substitution; also called c.499A>T) MSTAVLENPGLGRKLSDFGQETSYIEDNCNQNGAISLIFSLKEEVGALAKVLRLFEENDVNLTHIESRPSRLKKDEYEFFTHLDKRSLPALTNIIKILRHDIGATVHELSRDKKKDTVPWFPRTIQELDRFANQILSYGAELDADHPGFKDPVYRARRKQFADIAYYYRHGQPIPRVEYMEEEKKTWGTVFKTLKSLYKTHACYEYNHIFPLLEKYCGFHEDNIPQLEDVSQFLQTCTGFRLRPVAGLLSSRDFLGGLAFRVFHCTQYIRHGSKPMYTPEPDICHELLGHVPLFSDRSFAQFSQEIGLASLGAPDEYIEKLATIYWFTVEFGLCKQGDSIKAYGAGLLSSFGELQYCLSEKPKLLPLELEKTAIQNYTVTEFQPLYYVAESFNDAKEKVRNFAATIPRPFSVRYDPYTQRIEVLDNTQQLKILADSINSEIGILCSALQKIK |  | 20.2% | 8.5% | 38.8% | 33.2%
8 | human phenylalanine hydroxylase variant p.Gly239Ala, fusion with maltose-binding protein (enzyme, UniProt P00439 1-452, looked up, phenylalanine hydroxylase (PAH), human, missense variant from Czech PKU/HPA patients, made by site-directed mutagenesis of pMAL-PAH; Same construct as m1 with one substitution; also called c.716G>C) MSTAVLENPGLGRKLSDFGQETSYIEDNCNQNGAISLIFSLKEEVGALAKVLRLFEENDVNLTHIESRPSRLKKDEYEFFTHLDKRSLPALTNIIKILRHDIGATVHELSRDKKKDTVPWFPRTIQELDRFANQILSYGAELDADHPGFKDPVYRARRKQFADIAYNYRHGQPIPRVEYMEEEKKTWGTVFKTLKSLYKTHACYEYNHIFPLLEKYCGFHEDNIPQLEDVSQFLQTCTAFRLRPVAGLLSSRDFLGGLAFRVFHCTQYIRHGSKPMYTPEPDICHELLGHVPLFSDRSFAQFSQEIGLASLGAPDEYIEKLATIYWFTVEFGLCKQGDSIKAYGAGLLSSFGELQYCLSEKPKLLPLELEKTAIQNYTVTEFQPLYYVAESFNDAKEKVRNFAATIPRPFSVRYDPYTQRIEVLDNTQQLKILADSINSEIGILCSALQKIK |  | 32.8% | 14% | 5.5% | 
